Measurements published in publication PMC3622243.
pKd: −log10 of the molar value.

Tests used:
[1] = target: HLA-B27 heterotrimer complexed with the HIV GAG-KK10 L6M escape mutant peptide (human | not stated | HIV); assay: SPR
[2] = target: HLA-B27 free heavy chains generated from immobilised heterotrimers (human); assay: SPR
HLA-A3 heterotrimer = assay: SPR
[3] = target: HLA-A2 expressed by transfected LBL.721.221 cells (human); assay: flow cytometry on cells
[4] = target: HLA-A3 expressed by transfected LBL.721.221 cells (human); assay: flow cytometry on cells
[5] = target: HLA-B35 expressed by transfected LBL.721.221 cells (human); assay: flow cytometry on cells
[6] = target: c67s mutant of HLA-B*2705 expressed by transfected LBL.721.221 cells (human); assay: flow cytometry on cells
[7] = target: HLA-B*2705 expressed by transfected LBL.721.221 cells (human); assay: flow cytometry on cells

Q: With “LILRB1 incorporating the two immunoglobulin-like domains D1 and D2 (domain or fragment)” as the substance, how does the pKd [1] read?
A: 5.41

Q: With “LILRB2 incorporating the two immunoglobulin-like domains D1 and D2 (domain or fragment)” as the substance, how does the pKd [1] read?
A: 4.80

Q: What about the pKd [2] of the same substance?
A: 5.59

Q: And the pKd (HLA-A3 heterotrimer)?
A: 4.60

Q: Which results are given for “Soluble LILRB2Fc incorporating the D1, D2, D3 and D4 domains of LILRB2 (Fc fusion)”?
A: geometric mean fluorescent intensity [3]: 233; geometric mean fluorescent intensity [4]: 107; geometric mean fluorescent intensity [5]: 81; geometric mean fluorescent intensity [6]: 24; geometric mean fluorescent intensity [7]: 568; geometric mean fluorescent intensity after inhibition with HC10 [7]: 244; geometric mean fluorescent intensity after inhibition with W632 [7]: 161; geometric mean fluorescent intensity after isotype control MAbs [7]: 489
